One assay concerns the target SV40 T-ag-NLS-GFP (SV40). As to the kind of experiment: AlphaScreen or HTRF.
Assay [1] has as its target PfTGS1-NLS-GFP (bi-partite NLS of P. falciparum trimethyl guanosine synthase 1 fused to GFP) (Plasmodium falciparum). As to the kind of experiment: SPR.
Assay [2] has the same target. As to the kind of experiment: SPR. The source holds these as a separate data set.
The target of assay [3] is ΔIBB-TgImpα (T. gondii importin α lacking the IBB domain, amino acids 92-545, C-terminal His-tag) (Toxoplasma gondii). The experiment in a line: pull-down.

Where two headings read alike, the source gives them in different places.

Here are results for 9 substances from doi:10.1101/2022.10.06.510747.

For “pre-dimerized TgImpα/MmImpβ1 (from UniProt P70168 1-876) (complex)”, in the assay with SV40 T-ag-NLS-GFP (SV40), the equilibrium dissociation constant (Kd) was found to be 1.5 nM.
“SKR-TgImpα (KKR/SKR mutant of the third basic cluster) (natural protein)” had a Kd in assay [1] of 410 nM.
The substance “AAA-TgImpα (KKR/AAA mutant of the third basic cluster) (natural protein)” came in with a Kd in assay [1] of 280 nM.
With “WT-TgImpα (full-length Toxoplasma gondii importin α with C-terminal His-tag) (natural protein)”, the results for the Kd in assay [1] and in assay [2] were 3.26 nM and 830 nM, respectively.
Take “WT-TgImpα with a C-terminal GST tag (from UniProt A0A125YID0 1-545) (natural protein)”: the Kd with SV40 T-ag-NLS-GFP (SV40) was 3.5 nM.
Consider “KRR-TgImpα (KKR/KRR mutant of the third basic cluster) (natural protein)”, for which the Kd in assay [1] stood at 1450 nM.
For the substance “MmHinge-TgImpα (TgImpα chimera containing the hinge motif from MmImpα2) (from UniProt P52293 57-70)”, in assay [1], the Kd is 5.1 nM.
As for “PfTGS1-NLS-GFP (bi-partite NLS of P. falciparum trimethyl guanosine synthase 1 fused to GFP) (domain or fragment)”, the relative band intensity (pulled down by ΔIBB-TgImpα over WT-TgImpα) in assay [3] turned out to be 4.6.
In assay [2], “ΔIBB-TgImpα (T. gondii importin α lacking the IBB domain, amino acids 92-545, C-terminal His-tag) (domain or fragment)” yielded a Kd of 240 nM.
